Experimental findings from publication PMC7138838, “Gating mechanism of elongating β-ketoacyl-ACP synthases” (Nature Communications, 2020) are described below.

The chains are these.
B1: FabF (KASII family β-ketoacyl-ACP synthase), wild type (enzyme, E. coli)
chain: MSKRRVVVTGLGMLSPVGNTVESTWKALLAGQSGISLIDHFDTSAYATKFAGLVKDFNCEDIISRKEQRKMDAFIQYGIVAGVQAMQDSGLEITEENATRIGAAIGSGIGGLGLIEENHTSLMNGGPRKISPFFVPSTIVNMVAGHLTIMYGLRGPSISIATACTSGVHNIGHAARIIAYGDADVMVAGGAEKASTPLGVGGFGAARALSTRNDNPQAASRPWDKERDGFVLGDGAGMLVLEEYEHAKKRGAKIYAELVGFGMSSDAYHMTSPPENGAGAALAMANALRDAGIEASQIGYVNAHGTSTPAGDKAEAQAVKTIFGEAASRVLVSSTKSMTGHLLGAAGAVESIYSILALRDQAVPPTINLDNPDEGCDLDFVPHEARQVSGMEYTLCNSFGFGGTNGSLIFKKI
notes: FabF, elongating β-ketoacyl-ACP synthase (KASII family), E. coli; also called wt FabF; source: E. coli BL21, purified (Ni-NTA, thrombin cleavage, Superdex 200); not shown: His8, N-terminal, cleaved

Data set [1] concerns the molecule itself. Nature of the data set: crystal structure; AcpP covalently crosslinked through its pantetheineamide probe (Ser36) to Cys163 of the KS (crypto-AcpP:KS 5:1, 37 °C, 16 h; SEC in 20 mM Tris, 50 mM NaCl, pH 7.4); hanging drop, 6 °C, PEG 8K, 0.1 M sodium cacodylate pH 6.5.
In data set [2] the target is B1. Nature of the data set: cross-linking; mechanism-based crosslinking, single time point: 40 μM crypto-AcpP, 20 μM FabF, 25 mM Tris, 150 mM NaCl, 10% glycerol, 0.5 mM TCEP, pH 7.4; SDS-PAGE densitometry; efficiency normalised to the average of wt FabF; n = 3. The note with it: both partners purified.
The target in data set [3] is FabF F400A (gate removal mutant) (E. coli). The data set is described as above.
The target of data set [4] is FabF G402A (loop flexibility-modulated mutant) (E. coli). The data set is described as above.
The target in data set [5] is FabF G310F (pocket-blockage mutant) (E. coli). The data set is described as above.
Data set [6] deals with FabF D265A (loop 2 destabilization mutant) (E. coli). The description is as above.
The target of data set [7] is FabF G310M (pocket-blockage mutant) (E. coli). Described as above.
For data set [8], the target named is FabF D265N (loop 2 destabilization mutant) (E. coli). The data set is described as above.
Data set [9] addresses B1. Nature of the data set: crystal structure; AcpP covalently crosslinked through its pantetheineamide probe (Ser36) to Cys163 of the KS (crypto-AcpP:KS 5:1, 37 °C, 16 h; SEC in 20 mM Tris, 50 mM NaCl, pH 7.4); hanging drop, 6 °C, PEG 8K, 0.1 M sodium cacodylate pH 6.5. Particulars: both partners purified.

As to B1, the stoichiometry N (as a rule, the number of molecules, sites or subunits per partner or assembly) in data set [1] came to 2.

B2: C8Cl-AcpP (natural protein, E. coli)
chain: MSTIEERVKKIIGEQLGVKQEEVTNNASFVEDLGADSLDTVELVMALEEEFDTEIPDEEAEKITTVQAAIDYINGHQA
modifications: Ser36 carries a 4'-phosphopantetheineamide arm with the C8 chloroacrylate (chlorovinyl) probe
notes: acyl carrier protein AcpP, E. coli; also called C8Cl (2b); source: E. coli BL21 (DE3), purified; apofied with AcpH, loaded with the C8 chloroacrylate probe by the one-pot chemoenzymatic method, purified by SEC
On to B2, for which, in [2], the binding result was “binds”. The crosslinking efficiency normalised to wt FabF was found to be 133% in [3] and 24% in data set [4].

B3: C3Cl-AcpP (natural protein, E. coli)
chain: MSTIEERVKKIIGEQLGVKQEEVTNNASFVEDLGADSLDTVELVMALEEEFDTEIPDEEAEKITTVQAAIDYINGHQA
modifications: Ser36 carries a 4'-phosphopantetheineamide arm with the C3 chloroacrylate (chlorovinyl) probe
notes: acyl carrier protein AcpP, E. coli; also called C3Cl (2a); source: E. coli BL21 (DE3), purified; apofied with AcpH, loaded with the C3 chloroacrylate probe by the one-pot chemoenzymatic method, purified by SEC
For the molecule B3, the binding result in data set [2] was “binds”. In addition, the crosslinking efficiency normalised to wt FabF in data set [5] was found to be 85%; in data set [6], 63%; in data set [4], 87%; in [7], 82%; in data set [8], 73%.

B4: 1c-AcpP (C2αBr-AcpP) (natural protein, E. coli)
chain: MSTIEERVKKIIGEQLGVKQEEVTNNASFVEDLGADSLDTVELVMALEEEFDTEIPDEEAEKITTVQAAIDYINGHQA
modifications: Ser36 carries a 4'-phosphopantetheineamide arm with the C2 α-bromo probe 1c
notes: acyl carrier protein AcpP, E. coli; also called C2αBr (1c); crypto-1c-ACP; source: E. coli BL21 (DE3), purified; apofied with AcpH, loaded with probe 1c by the one-pot chemoenzymatic method, purified by SEC
On to B4, for which, in data set [2], the binding result is recorded as “binds”. Also, the crosslinking efficiency normalised to wt FabF in [5] worked out at 73%; in data set [6], 72%; in data set [7], 70%; in data set [8], 77%.

B5: crypto-1a-AcpP (C12AcpP) (natural protein, E. coli)
chain: MSTIEERVKKIIGEQLGVKQEEVTNNASFVEDLGADSLDTVELVMALEEEFDTEIPDEEAEKITTVQAAIDYINGHQA
modifications: Ser36 carries a 4'-phosphopantetheineamide arm with the C12 α-bromo acyl probe 1a
notes: acyl carrier protein AcpP, E. coli; Called 'native AcpP recombinant protein'; no tag is named; In the crosslinked complexes the α-carbon of the probe is bonded to Cys163 of the KS; also called C12αBr-AcpP; C12αBr (1a); source: E. coli BL21 (DE3), purified (isopropanol precipitation, HiTrap Q, Superdex 75); apofied with AcpH, loaded with probe 1a by the one-pot chemoenzymatic method, purified by …
Consider B5, for which the binding result in data set [9] is “binds”. The crosslinking efficiency normalised to wt FabF in [5] is 33%; in data set [6], 51%; in data set [7], 30%; in [8], 64%.

B6: crypto-1b-AcpP (C16AcpP) (natural protein, E. coli)
chain: MSTIEERVKKIIGEQLGVKQEEVTNNASFVEDLGADSLDTVELVMALEEEFDTEIPDEEAEKITTVQAAIDYINGHQA
modifications: Ser36 carries a 4'-phosphopantetheineamide arm with the C16 α-bromo acyl probe 1b
notes: acyl carrier protein AcpP, E. coli; Called 'native AcpP recombinant protein'; no tag is named; In the crosslinked complexes the α-carbon of the probe is bonded to Cys163 of the KS; source: E. coli BL21 (DE3), purified (isopropanol precipitation, HiTrap Q, Superdex 75); apofied with AcpH, loaded with probe 1b by the one-pot chemoenzymatic method, purified by SEC
As to B6, the binding result in data set [9] was “binds”.

B7: FabB (KASI family β-ketoacyl-ACP synthase), wild type (enzyme, E. coli)
chain: MKRAVITGLGIVSSIGNNQQEVLASLREGRSGITFSQELKDSGMRSHVWGNVKLDTTGLIDRKVVRFMSDASIYAFLSMEQAIADAGLSPEAYQNNPRVGLIAGSGGGSPRFQVFGADAMRGPRGLKAVGPYVVTKAMASGVSACLATPFKIHGVNYSISSACATSAHCIGNAVEQIQLGKQDIVFAGGGEELCWEMACEFDAMGALSTKYNDTPEKASRTYDAHRDGFVIAGGGGMVVVEELEHALARGAHIYAEIVGYGATSDGADMVAPSGEGAVRCMKMAMHGVDTPIDYLNSHGTSTPVGDVKELAAIREVFGDKSPAISATKAMTGHSLGAAGVQEAIYSLLMLEHGFIAPSINIEELDEQAAGLNIVTETTDRELTTVMSNSFGFGGTNATLVMRKLKD
notes: FabB, elongating β-ketoacyl-ACP synthase (KASI family), E. coli; source: E. coli BL21, purified (Ni-NTA, thrombin cleavage, Superdex 200); not shown: His8, N-terminal, cleaved
In the case of B7, the “stoichiometry N” value in [1] was found to be 2.
